The target in this assay is mysterin/RNF213, wild type, full length, C-terminally 3 × FLAG-tagged (mysterin-FLAG) and C-terminally cMyc-tagged (mysterin-Myc) copies (human) (UniProt Q63HN8). Kind of assay: co-IP; two differently tagged copies (C-terminal 3 × FLAG and cMyc) co-expressed in HEK-293 cells; lysate immunoprecipitated with anti-FLAG antibody, immunoblot with anti-Myc antibody; lysis buffer 1% NP-40, 150 mM KCl, 50 mM HEPES-NaOH pH 7.5. The conditions noted are these: remark: other sources report otherwise.

“mysterin/RNF213, wild type, full length, C-terminally 3 × FLAG-tagged (mysterin-FLAG) and C-terminally cMyc-tagged (mysterin-Myc) copies, Q63HN8 1-5207” displayed an efficiency of the co-IP (co-IP divided by the basal expression level) of 1 to 3%.

The values above are taken from article PMC3963067.
